Tests used:
[1] = molecular target: T1, recombinant human PEDF protein (pigment epithelium derived factor) (human, UniProt P36955 20-418); assay: SPR (BIAcore), PEDF immobilized on CM5 chip; PBS with 0.1% NP-40
T1 chain: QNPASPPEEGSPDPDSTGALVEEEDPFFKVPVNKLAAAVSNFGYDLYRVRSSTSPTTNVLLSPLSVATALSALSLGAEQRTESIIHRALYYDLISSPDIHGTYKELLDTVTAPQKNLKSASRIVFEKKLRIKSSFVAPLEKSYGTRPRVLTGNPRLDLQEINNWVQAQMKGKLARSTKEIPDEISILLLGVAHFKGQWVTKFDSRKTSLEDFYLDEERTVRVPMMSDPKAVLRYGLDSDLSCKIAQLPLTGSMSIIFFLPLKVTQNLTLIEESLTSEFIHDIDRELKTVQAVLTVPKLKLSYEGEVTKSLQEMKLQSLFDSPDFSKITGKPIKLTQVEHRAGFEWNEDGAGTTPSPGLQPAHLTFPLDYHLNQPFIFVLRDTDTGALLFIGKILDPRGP

[2] = molecular target: T1, recombinant human PEDF protein (pigment …); assay: as above

Ka [1]: 4.32e+08 M⁻¹ | Kd [2]: 2.31 nM
B1: R1N (recombinant human PEDF-R1 polypeptide with N-terminal 6xHis tag, from pEXP1-R1N) (receptor)
chain: MFPREKTWNISFAGCGFLGVYYVGVASCLREHAPFLVANATHIYGASAGALTATALVTGVCLGEAGAKFIEVSKEARKRFLGPLHPSFNLVKIIRSFLLKVLPADSHEHASGRLGISLTRVSDGENVIISHFNSKDELIQANVCSGFIPVYCGLIPPSLQGVRYVDGGISDNLPLYELKNTITVSPFSGESDICPQDSSTNIHELRVTNTSIQFNLRNLYRLSKALFPPEPLVLREMCKQGYRDGLRFLQRNGLLNRPNPLLALPPARPHGPEDKDQAVESAQAEDYSQLPGEDHILEHLPARLNEALLEACVEPTDLLTTLSNMLPVRLATAMMVPYTLPLESALSFTIRLLEWLPDVPEDIRWMKEQTGSICQYLVMRAKRKLGRHLPSRLPEQVELRRVQSLPSVPLSCAAYREALPGWMRNNLSLGDALAKWEECQRQLLLGLFCTNVAFPPEALRMRAPADPAPAPADPASPQHQLAGPAPLLSTPAPEARPVIGALGL
